# From IntAct's records for PubMed 22863753
# B1: NLR family CARD domain-containing protein 3 (Homo sapiens), Q7RTR2 (parent)
# chain: MRKQEVRTGREAGQGHGTGSPAEQVKALMDLLAGKGSQGSQAPQALDRTPDAPLGPCSNDSRIQRHRKALLSKVGGGPELGGPWHRLASLLLVEGLTDLQLREHDFTQVEATRGGGHPARTVALDRLFLPLSRVSVPPRVSITIGVAGMGKTTLVRHFVRLWAHGQVGKDFSLVLPLTFRDLNTHEKLCADRLICSVFPHVGEPSLAVAVPARALLILDGLDECRTPLDFSNTVACTDPKKEIPVDHLITNIIRGNLFPEVSIWITSRPSASGQIPGGLVDRMTEIRGFNEEEIKVCLEQMFPEDQALLGWMLSQVQADRALYLMCTVPAFCRLTGMALGHLWRSRTGPQDAELWPPRTLCELYSWYFRMALSGEGQEKGKASPRIEQVAHGGRKMVGTLGRLAFHGLLKKKYVFYEQDMKAFGVDLALLQGAPCSCFLQREETLASSVAYCFTHLSLQEFVAAAYYYGASRRAIFDLFTESGVSWPRLGFLTHFRSAAQRAMQAEDGRLDVFLRFLSGLLSPRVNALLAGSLLAQGEHQAYRTQVAELLQGCLRPDAAVCARAINVLHCLHELQHTELARSVEEAMESGALARLTGPAHRAALAYLLQVSDACAQEANLSLSLSQGVLQSLLPQLLYCRKLRLDTNQFQDPVMELLGSVLSGKDCRIQKISLAENQISNKGAKALARSLLVNRSLTSLDLRGNSIGPQGAKALADALKINRTLTSLSLQGNTVRDDGARSMAEALASNRTLSMLHLQKNSIGPMGAQRMADALKQNRSLKELMFSSNSIGDGGAKALAEALKVNQGLESLDLQSNSISDAGVAALMGALCTNQTLLSLSLRENSISPEGAQAIAHALCANSTLKNLDLTANLLHDQGARAIAVAVRENRTLTSLHLQWNFIQAGAAQALGQALQLNRSLTSLDLQENAIGDDGACAVARALKVNTALTALYLQVASIGASGAQVLGEALAVNRTLEILDLRGNAIGVAGAKALANALKVNSSLRRLNLQENSLGMDGAICIATALSGNHRLQHINLQGNHIGDSGARMISEAIKTNAPTCTVEM
# partner: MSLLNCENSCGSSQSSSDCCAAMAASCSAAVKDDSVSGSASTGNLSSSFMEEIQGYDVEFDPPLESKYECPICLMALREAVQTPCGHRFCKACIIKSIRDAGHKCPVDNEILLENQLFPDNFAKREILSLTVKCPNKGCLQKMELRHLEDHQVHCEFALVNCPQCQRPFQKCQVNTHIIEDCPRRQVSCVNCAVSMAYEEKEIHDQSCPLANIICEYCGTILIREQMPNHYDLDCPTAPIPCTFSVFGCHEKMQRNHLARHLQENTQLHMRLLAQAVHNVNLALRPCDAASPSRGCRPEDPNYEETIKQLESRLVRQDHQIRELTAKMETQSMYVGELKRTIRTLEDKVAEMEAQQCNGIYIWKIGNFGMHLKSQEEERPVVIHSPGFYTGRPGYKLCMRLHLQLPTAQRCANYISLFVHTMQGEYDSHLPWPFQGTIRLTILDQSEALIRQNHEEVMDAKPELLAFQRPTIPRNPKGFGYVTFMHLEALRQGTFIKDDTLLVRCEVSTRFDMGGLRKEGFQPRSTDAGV
# Variants of: B1
# Conditions: with traf6_mouse Traf6, P70196
row,effect of a mutation on the interaction,Variant
1,decreasing interaction,S457A;L458A;Q459A;E460A
